Results published in article PMC12148588 (eBioMedicine, 2025).

Molecular target: T1, SARS-CoV-2 RBD of the Wuhan strain (Acro Biosystems SPD-C82E9-25) (SARS-CoV-2, Wuhan strain, UniProt P0DTC2)
T1 construct: source: bought: Acro Biosystems
Test: SPR; Biacore 8K+, […]; 10 mM HEPES pH 7.4, 150 mM NaCl, 3 mM EDTA, 0.05% Tween 20; […]
Details: both partners purified

B1: MB043_CL39 (antibody, V domains shown)
VH: EVQLVETGGGLIHPGGSLRLSCAASEFIVSYNYMSWVRQAPGKGLEWVSVIYSGGSTFYADAVKGRFTISRDSSKNTLDLLMNSLRVEDTAVYYCARVLPSNTDYFDYWGQGILVTVSS
VL: QSVLTQPPSVSGATGQRVTISCTGSNSNIGAGSDVHWYQQLPGAAPKLLIYVNNNRPSGVPDRFSGSKSGTSASLAITGLQAEDEADYYCQSYDSSLSGYVFGTGTKVTVL
**Q.** How did the “fold higher affinity than MB027_D06L” value turn out when B1 was run?
**A.** The value was > 200 fold.
